Assay results taken from patent US20170174789A1 (Regeneron, published 2017).
Blank lines part the entries; values can stand above or below the binder they belong to.

Tests used:
[1] = biological target: hTie2 on 293-Tie2/SRE-Luc cells (human, UniProt Q02763 23-1124); assay: cell-based or functional assay
hTie2-His [2] = biological target: T1, hTie2-His (human, UniProt Q02763 23-745); assay: SPR Biacore 37C, mAb captured
T1 construct: also called ecto-Tie2 fused to 6xHis; biotin-Tie2-His
Protocol: (§1) (Tables 3-6). Measurements were conducted on a Biacore 2000 or T200 instrument.
(§2) For antibodies with a mouse constant region (designated H1M or H2M), antibodies were immobilized onto an anti-mouse Fc sensor surface and different concentrations of human, mouse or rat Tie2 constructs (hTie2-His, mTie2-hFc and rTie2-hFc) were injected over the antibody captured surface. For antibodies in the human IgG format (designated H1H or H4H), either an anti-human Fc sensor surface (hTie2-His and hTie2-mFc) or anti-human Fab sensor surface (mTie2-hFc and rTie2-hFc) was employed depending on the Tie-2 construct applied to the antibody captured surface. Amino acid sequences of the constructs used in this Example are as follows: hTie2-His (SEQ ID NO:2); hTie2-hFc (SEQ ID NO:3); hTie2-mFc (SEQ ID NO:4); rTie2-hFc (SEQ ID NO:5); and mTie2-hFc (SEQ ID NO:6).
(§3) Kinetic rate constants—association rate (ka) and dissociation rate (kd) were determined by fitting the real time binding sensorgrams to a 1:1 binding model with mass transport limitation using Scrubber 2.0 curve fitting software. The equilibrium dissociation constant (KD) and dissociative half-life (T½) were calculated from the kinetic rate constants as: KD (M)=kd/ka; and T½ (min)=(In2/(60*kd).).

hTie2-mFc [3] = biological target: T2, hTie2-mFc (human); assay: SPR Biacore 37C, mAb captured
T2 chain: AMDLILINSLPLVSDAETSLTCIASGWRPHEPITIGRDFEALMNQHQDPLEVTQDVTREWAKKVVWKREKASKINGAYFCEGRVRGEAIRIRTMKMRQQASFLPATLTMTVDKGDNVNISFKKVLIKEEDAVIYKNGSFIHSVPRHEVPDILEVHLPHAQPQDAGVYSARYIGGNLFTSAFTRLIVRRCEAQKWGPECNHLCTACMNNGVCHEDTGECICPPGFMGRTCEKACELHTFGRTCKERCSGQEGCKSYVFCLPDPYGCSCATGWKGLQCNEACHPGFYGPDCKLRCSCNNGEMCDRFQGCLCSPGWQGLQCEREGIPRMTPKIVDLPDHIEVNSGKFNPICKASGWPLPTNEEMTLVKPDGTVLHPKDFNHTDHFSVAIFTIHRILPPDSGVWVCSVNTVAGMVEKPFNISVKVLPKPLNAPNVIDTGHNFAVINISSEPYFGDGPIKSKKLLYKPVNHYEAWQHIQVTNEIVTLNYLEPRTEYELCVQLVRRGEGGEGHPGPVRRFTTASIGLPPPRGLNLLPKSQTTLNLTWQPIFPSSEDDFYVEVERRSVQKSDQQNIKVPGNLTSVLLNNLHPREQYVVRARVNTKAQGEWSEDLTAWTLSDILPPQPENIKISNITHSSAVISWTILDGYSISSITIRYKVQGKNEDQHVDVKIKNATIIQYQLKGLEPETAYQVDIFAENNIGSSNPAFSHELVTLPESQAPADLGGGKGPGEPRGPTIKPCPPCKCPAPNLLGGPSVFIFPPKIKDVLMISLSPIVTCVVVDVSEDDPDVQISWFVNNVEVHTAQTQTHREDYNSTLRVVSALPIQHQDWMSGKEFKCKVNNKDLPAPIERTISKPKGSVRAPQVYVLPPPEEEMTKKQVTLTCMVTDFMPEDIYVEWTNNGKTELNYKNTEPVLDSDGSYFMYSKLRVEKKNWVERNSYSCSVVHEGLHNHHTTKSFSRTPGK
Protocol: as §1, §2, §3

hTie2-His [4] = biological target: T1, hTie2-His; assay: SPR Biacore 25C, mAb captured
Protocol: as §1, §2, §3

hTie2-mFc [5] = biological target: T2, hTie2-mFc; assay: SPR Biacore 25C, mAb captured
Protocol: as §1, §2, §3

mTie2-hFc = biological target: T3, mTie2-hFc (mouse); assay: SPR Biacore 25C, mAb captured
T3 construct: also called mouse Tie2
Protocol: as §1, §2, §3

rTie2-hFc = biological target: T4, rTie2-hFc (rat); assay: SPR Biacore 25C, mAb captured
T4 construct: also called rat Tie2
Protocol: as §1, §2, §3

hTie2-His [6] = biological target: T1, hTie2-His; assay: blocking ELISA: antibody premixed with 0.8 nM biotin-hTie2-His, binding to plate-coated Bow-Ang2
Protocol: Tie2 is known to interact with angiopoietins (Ang1, Ang2, Ang3 and Ang4). An initial set of experiments was therefore conducted to evaluate the ability of anti-Tie2 antibodies to block Tie2 binding to Ang2. In this first set of experiments, a quantitative blocking immunoassay was utilized. Briefly, solutions of 0.8 nM biotinylated ecto-Tie2 fused to 6×His (SEQ ID NO:2) were premixed with anti-Tie2 antibody ranging from ˜50 nM to 0 nM in serial dilutions. After a 1-hour incubation at room temperature, the amount of Tie2-His bound to plate coated Bow-Ang2 was measured by sandwich ELISA. Bow-Ang2 (SEQ ID NO:13), an Ang2 construct that comprises the Fc domain of hIgG1 flanked by one FD domain of Ang2 at both termini, was coated at 2 μg/ml on a 96 well microtiter plate and blocked with BSA. Plate-bound biotin-Tie2-His was detected using HRP conjugated streptavidin, and developed using BD OptEIA™ (BD Biosciences Pharmingen, San Diego, Calif.). Signals of OD₄₅₀ nm were recorded and data was analyzed using GraphPad Prism to calculate IC₅₀ values. IC₅₀s were defined as the amount of antibody required to reduce 50% of biotin-Tie2-His detectable to plate bound Bow-Ang2 ligand. In Table 9, an antibody is designated an “enhancer” if the addition of the antibody increases the amount of Tie2-His bound to the Bow-Ang2-coated surface relative to the no antibody control.

T4 sequence (chain, as listed by the source limits assumed): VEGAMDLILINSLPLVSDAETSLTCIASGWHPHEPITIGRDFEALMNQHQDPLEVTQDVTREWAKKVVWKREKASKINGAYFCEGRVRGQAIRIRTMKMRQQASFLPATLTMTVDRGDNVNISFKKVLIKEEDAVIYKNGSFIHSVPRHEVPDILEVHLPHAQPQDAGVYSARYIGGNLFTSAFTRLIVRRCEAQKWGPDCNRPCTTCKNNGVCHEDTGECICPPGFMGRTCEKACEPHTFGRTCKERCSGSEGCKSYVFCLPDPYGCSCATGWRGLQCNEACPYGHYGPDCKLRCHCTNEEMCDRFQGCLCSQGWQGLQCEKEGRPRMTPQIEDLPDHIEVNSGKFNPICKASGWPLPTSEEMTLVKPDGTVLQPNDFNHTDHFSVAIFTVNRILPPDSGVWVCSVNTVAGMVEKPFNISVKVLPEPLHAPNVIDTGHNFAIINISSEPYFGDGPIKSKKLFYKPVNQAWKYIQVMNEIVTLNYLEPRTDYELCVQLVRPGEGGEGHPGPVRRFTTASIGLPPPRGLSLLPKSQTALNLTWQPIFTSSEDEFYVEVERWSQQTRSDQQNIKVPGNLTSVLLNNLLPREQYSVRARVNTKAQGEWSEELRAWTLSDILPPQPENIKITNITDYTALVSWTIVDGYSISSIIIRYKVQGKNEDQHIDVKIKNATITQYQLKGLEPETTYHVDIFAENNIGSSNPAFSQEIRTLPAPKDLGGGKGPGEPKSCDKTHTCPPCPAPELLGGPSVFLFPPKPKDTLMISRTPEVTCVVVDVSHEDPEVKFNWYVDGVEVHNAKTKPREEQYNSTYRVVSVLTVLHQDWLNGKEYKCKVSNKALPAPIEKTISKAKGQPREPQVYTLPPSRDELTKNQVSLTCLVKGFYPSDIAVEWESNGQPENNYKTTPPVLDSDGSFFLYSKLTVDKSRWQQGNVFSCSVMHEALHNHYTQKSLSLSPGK

EC50, Tie2 dependent luciferase activity, 293-Tie2/SRE-Luc cells with 1 nM BowAng1 [1]: 10.3 nM
EC50, Tie2 dependent luciferase activity, 293-Tie2/SRE-Luc cells with 1 nM BowAng2 [1]: 13 nM
Kd (hTie2-His [2]): 72 nM
T½ (hTie2-His [2]): 2 min
koff (hTie2-His [2]): 0.00488 s⁻¹
kon (hTie2-His [2]): 67800 M⁻¹ s⁻¹
Kd (hTie2-mFc [3]): 1.53 nM
T½ (hTie2-mFc [3]): 39 min
koff (hTie2-mFc [3]): 0.000295 s⁻¹
kon (hTie2-mFc [3]): 193000 M⁻¹ s⁻¹
Kd (hTie2-His [4]): 22.4 nM
T½ (hTie2-His [4]): 9 min
koff (hTie2-His [4]): 0.00125 s⁻¹
kon (hTie2-His [4]): 55800 M⁻¹ s⁻¹
Kd (hTie2-mFc [5]): 0.67 nM
T½ (hTie2-mFc [5]): 114 min
koff (hTie2-mFc [5]): 0.000102 s⁻¹
kon (hTie2-mFc [5]): 151000 M⁻¹ s⁻¹
Kd (mTie2-hFc): 56.3 nM
T½ (mTie2-hFc): 4 min
koff (mTie2-hFc): 0.00263 s⁻¹
kon (mTie2-hFc): 46800 M⁻¹ s⁻¹
binding result (rTie2-hFc): no binding
IC50 (hTie2-His [6]): 0.189 nM
B1: H1H2339B (antibody, V domains shown)
VH: EVQLVESGGGLVQPGGSLRLSCAASGFTFSSYAMNWVRQAPGKGLEWVSSISGSGGNTYYADSVKGRFTISRDNSKNTLYLQLNSLRAEDTAVYYCAKDHSLSWYRNVFDIWGQGTMVTVSS
VL: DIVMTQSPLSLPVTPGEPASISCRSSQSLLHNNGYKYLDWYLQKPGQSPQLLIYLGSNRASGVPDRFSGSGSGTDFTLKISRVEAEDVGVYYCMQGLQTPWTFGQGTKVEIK
notes: Tested as H1H2339B (human IgG format, H1H prefix)

EC50, Tie2 dependent luciferase activity, 293-Tie2/SRE-Luc cells with 1 nM BowAng1 [1]: 1.41 nM
EC50, Tie2 dependent luciferase activity, 293-Tie2/SRE-Luc cells with 1 nM BowAng2 [1]: 2.1 nM
Kd (hTie2-His [2]): 102 nM
T½ (hTie2-His [2]): 1 min
koff (hTie2-His [2]): 0.00998 s⁻¹
kon (hTie2-His [2]): 97500 M⁻¹ s⁻¹
Kd (hTie2-mFc [3]): 2.58 nM
T½ (hTie2-mFc [3]): 22 min
koff (hTie2-mFc [3]): 0.000515 s⁻¹
kon (hTie2-mFc [3]): 200000 M⁻¹ s⁻¹
Kd (hTie2-His [4]): 49.2 nM
T½ (hTie2-His [4]): 3 min
koff (hTie2-His [4]): 0.00345 s⁻¹
kon (hTie2-His [4]): 70100 M⁻¹ s⁻¹
Kd (hTie2-mFc [5]): 1.16 nM
T½ (hTie2-mFc [5]): 60 min
koff (hTie2-mFc [5]): 0.000191 s⁻¹
kon (hTie2-mFc [5]): 165000 M⁻¹ s⁻¹
Kd (mTie2-hFc): 49.6 nM
T½ (mTie2-hFc): 2 min
koff (mTie2-hFc): 0.00672 s⁻¹
kon (mTie2-hFc): 136000 M⁻¹ s⁻¹
Kd (rTie2-hFc): 25.9 nM
T½ (rTie2-hFc): 3 min
koff (rTie2-hFc): 0.00371 s⁻¹
kon (rTie2-hFc): 143000 M⁻¹ s⁻¹
IC50 (hTie2-His [6]): 1.03 nM
B2: H1H2340B (antibody, V domains shown)
VH: EVQLVESGGGLVQPGGSLRLSCAASGFTFSRYWMSWVRQAPGMGLEWVANIKQDGSEKNYVDSVKGRFTVSRDNAKNSLYLQMNSLRAEDTAVYYCASAIFGVVITSYWGQGTLVTVSS
VL: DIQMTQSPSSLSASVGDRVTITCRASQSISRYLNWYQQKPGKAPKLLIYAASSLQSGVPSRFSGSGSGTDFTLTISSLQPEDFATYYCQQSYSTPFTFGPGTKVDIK
notes: Tested as H1H2340B (human IgG format, H1H prefix); also called HIH2340B
